Measured values from paper PMC4519987.

Key:
SOX17-Flag (rSOX17-Flag) [1] = target: T1, SOX17-Flag (rSOX17-Flag) (UniProt Q9H6I2 1-414); assay: competition; 300-fold excess vs Lef1_Biot; EMSA: 100 mM HEPES pH 8.0, 50 mM KCl, 500 uM DTT, 50 uM EDTA, 1 mM MgCl2, 5% glycerol, 0.02 U poly(dG-dC), 0.3 pmol biotin probe, 300-fold excess competitor; 7%
SOX17-Flag (rSOX17-Flag) [2] = target: T1, SOX17-Flag (rSOX17-Flag); assay: EMSA; EMSA: 100 mM HEPES pH 8.0, 50 mM KCl, 500 uM DTT, 50 uM EDTA, 1 mM MgCl2, 5% glycerol, 0.02 U poly(dG-dC), 0.3 pmol biotin probe, 300-fold excess competitor; 7%

T1 sequence (Q9H6I2 whole entry): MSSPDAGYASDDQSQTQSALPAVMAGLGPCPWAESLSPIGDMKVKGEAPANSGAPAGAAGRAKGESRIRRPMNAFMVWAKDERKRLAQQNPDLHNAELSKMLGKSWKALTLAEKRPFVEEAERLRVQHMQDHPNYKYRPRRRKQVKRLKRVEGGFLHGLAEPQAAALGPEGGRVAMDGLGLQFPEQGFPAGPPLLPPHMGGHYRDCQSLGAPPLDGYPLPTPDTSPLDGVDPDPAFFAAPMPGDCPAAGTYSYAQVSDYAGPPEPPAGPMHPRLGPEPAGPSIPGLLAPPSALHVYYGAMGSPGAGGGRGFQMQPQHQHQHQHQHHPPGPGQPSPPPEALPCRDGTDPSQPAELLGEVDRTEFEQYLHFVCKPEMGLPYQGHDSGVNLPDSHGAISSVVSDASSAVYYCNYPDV

Binder | binding result (SOX17-Flag (rSOX17-Flag) [1]) | binding result (SOX17-Flag (rSOX17-Flag) [2])
Lef1_Δ_s1 (dsDNA) DNA 1: CATTTCTTTATGTCAGGGTGGTACTGTTCTG DNA 2: CAGAACAGTACCACCCTGACATAAAGAAATG | no binding | 
Lef1_Biot (dsDNA) DNA 1: CATTTCTTTATGTCCTTTGTTTACTGTTCTG DNA 2: CAGAACAGTAAACAAAGGACATAAAGAAATG |  | binds
Lef1_s1 (dsDNA) DNA 1: CATTTCTTTATGTCCTTTGTTTACTGTTCTG DNA 2: CAGAACAGTAAACAAAGGACATAAAGAAATG | binds | 
